Experiment [1] deals with T1, HMmm1s–Mdm12 complex (K. lactis) (Kluyveromyces lactis, UniProt Q6CJU9+Q6CUC3).
T1 sequence (Q6CJU9 179-434): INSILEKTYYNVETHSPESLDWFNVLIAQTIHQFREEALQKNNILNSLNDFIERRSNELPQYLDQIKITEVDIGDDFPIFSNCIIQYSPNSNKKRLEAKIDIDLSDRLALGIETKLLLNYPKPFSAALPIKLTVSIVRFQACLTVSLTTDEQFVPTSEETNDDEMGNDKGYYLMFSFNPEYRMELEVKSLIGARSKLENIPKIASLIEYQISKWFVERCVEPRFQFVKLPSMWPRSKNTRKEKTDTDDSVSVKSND
T1 sequence (Q6CUC3 1-239): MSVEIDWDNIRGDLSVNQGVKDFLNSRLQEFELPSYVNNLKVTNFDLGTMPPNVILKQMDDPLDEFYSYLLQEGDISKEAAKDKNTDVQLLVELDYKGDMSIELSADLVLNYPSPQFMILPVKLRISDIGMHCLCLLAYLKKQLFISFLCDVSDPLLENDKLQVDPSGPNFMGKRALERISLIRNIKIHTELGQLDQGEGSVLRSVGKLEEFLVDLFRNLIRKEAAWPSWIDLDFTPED
The experiment in a line: NBD dequenching lipid transfer between liposomes. Type of experiment: biochemical. The note with it: 12.5 µM donor and 50 µM acceptor liposomes; pH 7.5; labelled compound.

Experiment [2] addresses T2, N-terminally His6-tagged K. lactis Mmm1s (179–434) V190S (Kluyveromyces lactis, UniProt Q6CJU9 179-434, V190S).
T2 sequence (looked up): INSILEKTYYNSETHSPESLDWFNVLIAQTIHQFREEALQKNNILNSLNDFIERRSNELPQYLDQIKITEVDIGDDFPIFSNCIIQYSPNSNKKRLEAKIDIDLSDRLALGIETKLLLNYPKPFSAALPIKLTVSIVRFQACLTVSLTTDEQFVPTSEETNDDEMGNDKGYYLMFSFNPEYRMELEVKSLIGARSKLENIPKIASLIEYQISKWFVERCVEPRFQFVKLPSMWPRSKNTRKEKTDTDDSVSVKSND
The experiment in a line: co-purification of a coexpressed complex.

Experiment [3] addresses T3, N-terminally His6-tagged K. lactis Mmm1s (179–434) I369S (Kluyveromyces lactis, UniProt Q6CJU9 179-434, I369S).
T3 sequence (looked up): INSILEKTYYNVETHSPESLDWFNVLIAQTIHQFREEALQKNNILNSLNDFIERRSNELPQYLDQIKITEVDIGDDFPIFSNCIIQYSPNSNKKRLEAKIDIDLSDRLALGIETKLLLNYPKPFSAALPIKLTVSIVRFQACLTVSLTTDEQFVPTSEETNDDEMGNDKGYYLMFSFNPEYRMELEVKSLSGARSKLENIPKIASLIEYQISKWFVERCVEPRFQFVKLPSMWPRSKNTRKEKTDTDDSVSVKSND
The experiment in a line: co-purification of a coexpressed complex.

Experiment [4] addresses T4, N-terminally His6-tagged K. lactis Mmm1s (179–434) L274S (Kluyveromyces lactis, UniProt Q6CJU9 179-434, L274S).
T4 sequence (looked up): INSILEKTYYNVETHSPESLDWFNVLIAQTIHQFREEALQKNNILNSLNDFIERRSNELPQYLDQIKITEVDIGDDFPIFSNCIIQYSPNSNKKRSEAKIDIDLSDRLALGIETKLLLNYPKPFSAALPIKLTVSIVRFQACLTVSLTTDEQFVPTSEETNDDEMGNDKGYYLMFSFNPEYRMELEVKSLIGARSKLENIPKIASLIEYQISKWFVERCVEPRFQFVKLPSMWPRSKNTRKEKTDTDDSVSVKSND
The experiment in a line: co-purification of a coexpressed complex.

Consider `CCCCCCCC/C=C\CCCCCCCC(=O)OC[C@H](COP(=O)(O)OC[C@H](Nc1ccc([N+](=O)[O-])c2nonc12)C(=O)O)OC(=O)CCCCCCC/C=C\CCCCCCCC` [NBD-PS, 1,2-dioleoyl-sn-glycero-3-phospho-L-serine-N-(7-nitro-2-1,3-benzoxadiazol-4-yl)], for which the “NBD-PS transferred after 10 s” value in experiment [1] is listed as “Efficiency of NBD-PS transfer between liposomes by HMmm1s–Mdm12 was threefold higher”.

B1: KlMdm12 (residues 1–239 of K. lactis Mdm12), nontagged (domain or fragment, Kluyveromyces lactis, UniProt Q6CUC3 1-239, looked up)
chain: MSVEIDWDNIRGDLSVNQGVKDFLNSRLQEFELPSYVNNLKVTNFDLGTMPPNVILKQMDDPLDEFYSYLLQEGDISKEAAKDKNTDVQLLVELDYKGDMSIELSADLVLNYPSPQFMILPVKLRISDIGMHCLCLLAYLKKQLFISFLCDVSDPLLENDKLQVDPSGPNFMGKRALERISLIRNIKIHTELGQLDQGEGSVLRSVGKLEEFLVDLFRNLIRKEAAWPSWIDLDFTPED
For the molecule B1, the binding result in experiment [2], in experiment [3] and in experiment [4] was “binds” throughout.

The record behind these values is paper PMC5839780 (The Journal of Cell Biology, 2018).
